Laboratory results: patent US20230357348A1 (AstraZeneca / MedImmune, published 2023)
Starred links: 1 amine or outer side, 2 acyl side, 3 side chain; linkers in the order of their positions; H or OH if unused. Non-standard residues stand in square brackets, D forms with d. Groups on a side chain read outwards from the residue. No end group written: not given here. *: point of attachment. C20 diacid = O=C(O)CCCCCCCCCCCCCCCCCCC(=O)*; C18 diacid = O=C(O)CCCCCCCCCCCCCCCCC(=O)*; γGlu = O=C(O)[C@H](CCC(=O)[*:2])N[*:1]; αMeF = C[C@](N)(Cc1ccccc1)C(=O)O; AEEA = NCCOCCOCC(=O)O; Aib = CC(C)(N)C(=O)O

What was measured:
[1] = target: human glucagon receptor (hGCGR) (human, UniProt P47871 26-477); assay: cell-based or functional assay
Sequence of human glucagon receptor (hGCGR) (P47871 26-477): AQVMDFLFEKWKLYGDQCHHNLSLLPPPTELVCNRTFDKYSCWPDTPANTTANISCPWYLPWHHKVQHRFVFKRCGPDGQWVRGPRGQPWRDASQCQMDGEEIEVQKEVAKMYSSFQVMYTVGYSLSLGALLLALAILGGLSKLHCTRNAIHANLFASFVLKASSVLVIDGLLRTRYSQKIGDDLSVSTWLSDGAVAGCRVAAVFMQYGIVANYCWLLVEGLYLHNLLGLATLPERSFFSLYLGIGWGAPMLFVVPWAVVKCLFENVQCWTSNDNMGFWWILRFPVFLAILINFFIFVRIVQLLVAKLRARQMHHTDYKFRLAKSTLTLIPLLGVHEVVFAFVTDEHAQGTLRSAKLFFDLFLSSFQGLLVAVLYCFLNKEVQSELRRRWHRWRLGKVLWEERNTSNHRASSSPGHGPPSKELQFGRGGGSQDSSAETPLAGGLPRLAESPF

[2] = target: human GLP-1 receptor (hGLP-1R) (human, UniProt P43220 24-463); assay: cell-based or functional assay

Row | Binder | hGluc-R EC50 (pM) [1] [pM] | hGLP-1R EC50 (pM) [2] [pM]
1 | H[Aib]QGTFTSDVSK[αMeF]LDSK([γGlu-γGlu-AEEA-AEEA-γGlu-γGlu-C18 diacid])RAQDFVRWLLEG[Aib]-OH (N-terminus assumed; SMILES CC(C)C[C@H](NC(=O)[C@H](CC(C)C)NC(=O)[C@H](Cc1c[nH]c2ccccc12)NC(=O)[C@H](CCCNC(=N)N)NC(=O)[C@@H](NC(=O)[C@H](Cc1ccccc1)NC(=O)[C@H](CC(=O)O)NC(=O)[C@H](CCC(N)=O)NC(=O)[C@H](C)NC(=O)[C@H](CCCNC(=N)N)NC(=O)[C@H](CCCCNC(=O)CC[C@H](NC(=O)CC[C@H](NC(=O)COCCOCCNC(=O)COCCOCCNC(=O)CC[C@H](NC(=O)CC[C@H](NC(=O)CCCCCCCCCCCCCCCCC(=O)O)C(=O)O)C(=O)O)C(=O)O)C(=O)O)NC(=O)[C@H](CO)NC(=O)[C@H](CC(=O)O)NC(=O)[C@H](CC(C)C)NC(=O)[C@](C)(Cc1ccccc1)NC(=O)[C@H](CCCCN)NC(=O)[C@H](CO)NC(=O)[C@@H](NC(=O)[C@H](CC(=O)O)NC(=O)[C@H](CO)NC(=O)[C@@H](NC(=O)[C@H](Cc1ccccc1)NC(=O)[C@@H](NC(=O)CNC(=O)[C@H](CCC(N)=O)NC(=O)C(C)(C)NC(=O)[C@@H](N)Cc1c[nH]cn1)[C@@H](C)O)[C@@H](C)O)C(C)C)C(C)C)C(=O)N[C@@H](CCC(=O)O)C(=O)NCC(=O)NC(C)(C)C(=O)O) [Peptide 137] | 268 | 143
2 | H[Aib]QGTFTSDVSK[αMeF]LDSK([γGlu-γGlu-AEEA-AEEA-γGlu-γGlu-C20 diacid])RAQDFVRWLLE[Aib]G-OH [Peptide 139] | 984 | 630
3 | H[Aib]QGTFTSDVSK[αMeF]LDSK([γGlu-γGlu-AEEA-AEEA-γGlu-γGlu-C18 diacid])RARDFVRWLLE[Aib]G-OH (N-terminus assumed; SMILES CC(C)C[C@H](NC(=O)[C@H](Cc1c[nH]c2ccccc12)NC(=O)[C@H](CCCNC(=N)N)NC(=O)[C@@H](NC(=O)[C@H](Cc1ccccc1)NC(=O)[C@H](CC(=O)O)NC(=O)[C@H](CCCNC(=N)N)NC(=O)[C@H](C)NC(=O)[C@H](CCCNC(=N)N)NC(=O)[C@H](CCCCNC(=O)CC[C@H](NC(=O)CC[C@H](NC(=O)COCCOCCNC(=O)COCCOCCNC(=O)CC[C@H](NC(=O)CC[C@H](NC(=O)CCCCCCCCCCCCCCCCC(=O)O)C(=O)O)C(=O)O)C(=O)O)C(=O)O)NC(=O)[C@H](CO)NC(=O)[C@H](CC(=O)O)NC(=O)[C@H](CC(C)C)NC(=O)[C@](C)(Cc1ccccc1)NC(=O)[C@H](CCCCN)NC(=O)[C@H](CO)NC(=O)[C@@H](NC(=O)[C@H](CC(=O)O)NC(=O)[C@H](CO)NC(=O)[C@@H](NC(=O)[C@H](Cc1ccccc1)NC(=O)[C@@H](NC(=O)CNC(=O)[C@H](CCC(N)=O)NC(=O)C(C)(C)NC(=O)[C@@H](N)Cc1c[nH]cn1)[C@@H](C)O)[C@@H](C)O)C(C)C)C(C)C)C(=O)N[C@@H](CC(C)C)C(=O)N[C@@H](CCC(=O)O)C(=O)NC(C)(C)C(=O)NCC(=O)O) [Peptide 136] | 509 | 45.2
4 | H[Aib]QGTFTSDVSK[αMeF]LDSK([γGlu-γGlu-AEEA-AEEA-γGlu-γGlu-C18 diacid])RAQDFVRWLLE[Aib]G-OH (N-terminus assumed; SMILES CC(C)C[C@H](NC(=O)[C@H](Cc1c[nH]c2ccccc12)NC(=O)[C@H](CCCNC(=N)N)NC(=O)[C@@H](NC(=O)[C@H](Cc1ccccc1)NC(=O)[C@H](CC(=O)O)NC(=O)[C@H](CCC(N)=O)NC(=O)[C@H](C)NC(=O)[C@H](CCCNC(=N)N)NC(=O)[C@H](CCCCNC(=O)CC[C@H](NC(=O)CC[C@H](NC(=O)COCCOCCNC(=O)COCCOCCNC(=O)CC[C@H](NC(=O)CC[C@H](NC(=O)CCCCCCCCCCCCCCCCC(=O)O)C(=O)O)C(=O)O)C(=O)O)C(=O)O)NC(=O)[C@H](CO)NC(=O)[C@H](CC(=O)O)NC(=O)[C@H](CC(C)C)NC(=O)[C@](C)(Cc1ccccc1)NC(=O)[C@H](CCCCN)NC(=O)[C@H](CO)NC(=O)[C@@H](NC(=O)[C@H](CC(=O)O)NC(=O)[C@H](CO)NC(=O)[C@@H](NC(=O)[C@H](Cc1ccccc1)NC(=O)[C@@H](NC(=O)CNC(=O)[C@H](CCC(N)=O)NC(=O)C(C)(C)NC(=O)[C@@H](N)Cc1c[nH]cn1)[C@@H](C)O)[C@@H](C)O)C(C)C)C(C)C)C(=O)N[C@@H](CC(C)C)C(=O)N[C@@H](CCC(=O)O)C(=O)NC(C)(C)C(=O)NCC(=O)O) [Peptide 138] | 184 | 104
5 | H[Aib]QGTFTSDVSK[αMeF]LDSK([AEEA-AEEA-γGlu-C18 diacid])RAQDFVAWLLE[Aib]G-OH (N-terminus assumed; SMILES CC(C)C[C@H](NC(=O)[C@H](Cc1c[nH]c2ccccc12)NC(=O)[C@H](C)NC(=O)[C@@H](NC(=O)[C@H](Cc1ccccc1)NC(=O)[C@H](CC(=O)O)NC(=O)[C@H](CCC(N)=O)NC(=O)[C@H](C)NC(=O)[C@H](CCCNC(=N)N)NC(=O)[C@H](CCCCNC(=O)COCCOCCNC(=O)COCCOCCNC(=O)CC[C@H](NC(=O)CCCCCCCCCCCCCCCCC(=O)O)C(=O)O)NC(=O)[C@H](CO)NC(=O)[C@H](CC(=O)O)NC(=O)[C@H](CC(C)C)NC(=O)[C@](C)(Cc1ccccc1)NC(=O)[C@H](CCCCN)NC(=O)[C@H](CO)NC(=O)[C@@H](NC(=O)[C@H](CC(=O)O)NC(=O)[C@H](CO)NC(=O)[C@@H](NC(=O)[C@H](Cc1ccccc1)NC(=O)[C@@H](NC(=O)CNC(=O)[C@H](CCC(N)=O)NC(=O)C(C)(C)NC(=O)[C@@H](N)Cc1c[nH]cn1)[C@@H](C)O)[C@@H](C)O)C(C)C)C(C)C)C(=O)N[C@@H](CC(C)C)C(=O)N[C@@H](CCC(=O)O)C(=O)NC(C)(C)C(=O)NCC(=O)O) [Peptide 141] | 392 | 264

Further lines, results first:

Row | hGluc-R EC50 (pM) [1] [pM] | hGLP-1R EC50 (pM) [2] [pM] | Binder
6 | 32.6 | 19.1 | H[Aib]QGTFTSDVSK[αMeF]LDSK([AEEA-AEEA-γGlu-C18 diacid])RARDFVQWLLE[Aib]G-OH (N-terminus assumed; SMILES CC(C)C[C@H](NC(=O)[C@H](Cc1c[nH]c2ccccc12)NC(=O)[C@H](CCC(N)=O)NC(=O)[C@@H](NC(=O)[C@H](Cc1ccccc1)NC(=O)[C@H](CC(=O)O)NC(=O)[C@H](CCCNC(=N)N)NC(=O)[C@H](C)NC(=O)[C@H](CCCNC(=N)N)NC(=O)[C@H](CCCCNC(=O)COCCOCCNC(=O)COCCOCCNC(=O)CC[C@H](NC(=O)CCCCCCCCCCCCCCCCC(=O)O)C(=O)O)NC(=O)[C@H](CO)NC(=O)[C@H](CC(=O)O)NC(=O)[C@H](CC(C)C)NC(=O)[C@](C)(Cc1ccccc1)NC(=O)[C@H](CCCCN)NC(=O)[C@H](CO)NC(=O)[C@@H](NC(=O)[C@H](CC(=O)O)NC(=O)[C@H](CO)NC(=O)[C@@H](NC(=O)[C@H](Cc1ccccc1)NC(=O)[C@@H](NC(=O)CNC(=O)[C@H](CCC(N)=O)NC(=O)C(C)(C)NC(=O)[C@@H](N)Cc1c[nH]cn1)[C@@H](C)O)[C@@H](C)O)C(C)C)C(C)C)C(=O)N[C@@H](CC(C)C)C(=O)N[C@@H](CCC(=O)O)C(=O)NC(C)(C)C(=O)NCC(=O)O) [Peptide 143]
7 | 702 | 45.2 | H[Aib]QGTFTSDVSK[αMeF]LDSK([γGlu-γGlu-AEEA-AEEA-γGlu-γGlu-C18 diacid])RARDFVRWLLE[Aib]G-OH (N-terminus assumed; SMILES CC(C)C[C@H](NC(=O)[C@H](Cc1c[nH]c2ccccc12)NC(=O)[C@H](CCCNC(=N)N)NC(=O)[C@@H](NC(=O)[C@H](Cc1ccccc1)NC(=O)[C@H](CC(=O)O)NC(=O)[C@H](CCCNC(=N)N)NC(=O)[C@H](C)NC(=O)[C@H](CCCNC(=N)N)NC(=O)[C@H](CCCCNC(=O)CC[C@H](NC(=O)CC[C@H](NC(=O)COCCOCCNC(=O)COCCOCCNC(=O)CC[C@H](NC(=O)CC[C@H](NC(=O)CCCCCCCCCCCCCCCCC(=O)O)C(=O)O)C(=O)O)C(=O)O)C(=O)O)NC(=O)[C@H](CO)NC(=O)[C@H](CC(=O)O)NC(=O)[C@H](CC(C)C)NC(=O)[C@](C)(Cc1ccccc1)NC(=O)[C@H](CCCCN)NC(=O)[C@H](CO)NC(=O)[C@@H](NC(=O)[C@H](CC(=O)O)NC(=O)[C@H](CO)NC(=O)[C@@H](NC(=O)[C@H](Cc1ccccc1)NC(=O)[C@@H](NC(=O)CNC(=O)[C@H](CCC(N)=O)NC(=O)C(C)(C)NC(=O)[C@@H](N)Cc1c[nH]cn1)[C@@H](C)O)[C@@H](C)O)C(C)C)C(C)C)C(=O)N[C@@H](CC(C)C)C(=O)N[C@@H](CCC(=O)O)C(=O)NC(C)(C)C(=O)NCC(=O)O) [Peptide 144]
8 | 108 | 59.4 | H[Aib]QGTFTSDVSK[αMeF]LDSK([AEEA-AEEA-γGlu-C18 diacid])RARDFVAWLLE[Aib]G-OH (N-terminus assumed; SMILES CC(C)C[C@H](NC(=O)[C@H](Cc1c[nH]c2ccccc12)NC(=O)[C@H](C)NC(=O)[C@@H](NC(=O)[C@H](Cc1ccccc1)NC(=O)[C@H](CC(=O)O)NC(=O)[C@H](CCCNC(=N)N)NC(=O)[C@H](C)NC(=O)[C@H](CCCNC(=N)N)NC(=O)[C@H](CCCCNC(=O)COCCOCCNC(=O)COCCOCCNC(=O)CC[C@H](NC(=O)CCCCCCCCCCCCCCCCC(=O)O)C(=O)O)NC(=O)[C@H](CO)NC(=O)[C@H](CC(=O)O)NC(=O)[C@H](CC(C)C)NC(=O)[C@](C)(Cc1ccccc1)NC(=O)[C@H](CCCCN)NC(=O)[C@H](CO)NC(=O)[C@@H](NC(=O)[C@H](CC(=O)O)NC(=O)[C@H](CO)NC(=O)[C@@H](NC(=O)[C@H](Cc1ccccc1)NC(=O)[C@@H](NC(=O)CNC(=O)[C@H](CCC(N)=O)NC(=O)C(C)(C)NC(=O)[C@@H](N)Cc1c[nH]cn1)[C@@H](C)O)[C@@H](C)O)C(C)C)C(C)C)C(=O)N[C@@H](CC(C)C)C(=O)N[C@@H](CCC(=O)O)C(=O)NC(C)(C)C(=O)NCC(=O)O) [Peptide 142]
